Data: patent publication US11529390B2, “PCSK9 inhibitory polypolypeptides and methods of use” (INSTITUT DE CARDIOLOGIE DE MONTREAL, priority 2015, dated 2022)

B1: SEQ ID. NO. 6: GRP94 CDB-CT domain, 148 aa, recombinant ~20 kDa protein purified from E. coli (protein)
chain: YGWSGNMERIMKAQAYQTGKDISTNYYASQKKTFEINPRHPLIRDMLRRIKEDEDDKTVLDLAVVLFETATLRSGYLLPDTKAYGDRIERMLRLSLNIDPDAKVEEEPEEEPEETAEDTTEDTEQDEDEEMDVGTDEEEETAKESTAE

What was measured:
[1] = tested on: PCSK9-induced LDLR degradation; test: PCSK9-induced LDLR degradation in HepG2 cells, extracellular addition, immunoblot; assay type: cell-based, human
Experimental: (§1) FIG. 5: SEQ ID NO. 67 blocks PCSK9 internalization and LDLR degradation. Recombinant SEQ ID NO. 67 was added to conditioned media obtained from HEK293 transfected with PCSK9-mCherry or in DMEM together with recombinant human PCSK9, rotated 4 h at 4° C. and added overnight on HepG2 cells as indicated. (a) Following 24 h post-transfection with LDLR-EGFP cDNA (SEQ. ID. NO. 69), HepG2 cells were incubated with PCSK9-mCherry without (−) or with 10 nM SEQ ID NO. 67. Fluorescent proteins were visualized in fixed cells by confocal microscopy. (b) Cells were incubated without or with 25 nM PCSK9 alone or with 0, 10, 25 or 100 nM SEQ ID NO. 67. Total LDLR, SEQ ID NO. 67, PCSK9 and β-actin protein levels were analyzed by immunoblotting in cell lysates and conditioned media as indicated. Data are representative of at least three independent experiments.
FIG. 7: SEQ ID NO. 6 prevents PCSK9-induced LDLR degradation. (a) Left; Coomassie staining of purified recombinant SEQ ID NO. 6 and PCSK9 separated by SDS-PAGE is shown. Right; HepG2 cells were incubated in DMEM without or with 0, 25, 100 or 250 nM SEQ ID NO. 6 alone or in presence of recombinant PCSK9. (b) HepG2 cells were transfected without (−) or with PCSK9-V5 in absence (−) or presence SEQ ID NO. 66 or SEQ ID NO. 46. Total LDLR, PCSK9, SEQ ID NO. 66, SEQ ID NO. 46 and β-actin protein levels were analyzed by immunoblotting in cell lysates and conditioned media as indicated. Data are representative of at least three independent experiments.
For Western blot analyses, SDS-polyacrylamide gels were blotted on nitrocellulose membranes (Cat. #162-0115, Bio-Rad), and blocked for 1 h in Tris-Buffered Saline-Tween 20 (TBS-T; 50 mM Tris-HCl, pH 7.5, 150 mM NaCl, 0.1% Tween 20) containing 5% non-fat dry milk. Membranes were then incubated overnight in TBS-T supplemented with 1% non-fat milk and indicated antibodies: rabbit anti-PCSK9 (1:2500, custom made, GenScript), goat anti-human or anti-mouse LDLR (1:1000; Cat. #AF2148 or #A2255, R&D Systems), rat anti-Grp94 (1:30,000), rabbit anti-GRP78 (1:2500; Cat. #ab21685, Abcam), rabbit anti-GFP (1:2000; Cat. #A11122, Life Sciences), mouse anti-V5-tag (1:5000; Cat. #A00641, GenScript), mouse anti-HA-tag (1:5000), rabbit anti-β-actin (1:5000; Cat. #A2066, Sigma-Aldrich). Appropriate HRP-conjugated secondary antibodies (1:10,000, GE healthcare) were used for detection using the Western Lightning Ultra chemiluminescence kit (Cat. #NE1112001EA, PerkinElmer) and BioFlex EC Films (Cat. #CLEC810, InterScience).
To validate this hypothesis, we therefore first tested the effect of extracellular SEQ ID. NO. […]
We next tested whether SEQ ID. […] (Poirier et al., 2009) As PCSK9 was also shown to induce LDLR degradation via an intracellular pathway, (Poirier et al., 2009) we evaluated to ability of SEQ ID. […]

[2] = tested on: PCSK9-mCherry internalization; test: PCSK9-mCherry internalization in LDLR-EGFP transfected HepG2 cells, confocal microscopy; assay type: cell-based, human; conditions: 10 nM recombinant protein, HepG2, overnight, versus control
Experimental: as §1
Huh-7 cells were washed three times with PBS, fixed with Bouin's solution (0.9% picric acid, 9% paraformaldehyde, 5% acetic acid/PBS) for 15 min. Following extensive PBS washes, cells were permeabilized with 0.1% Triton X-100/PBS for 10 min and incubated with 150 mM glycine to stabilize the aldehydes. […]

PCSK9 binding to LDLR = target: T1, PCSK9 binding to LDLR (Homo sapiens, UniProt Q8NBP7); test: In vitro PCSK9-LDLR competitive pull-down (immunoprecipitation with mAb-V5); conditions: 1 μg PCSK9, 1 μg LDLR, preincubation 4 h
T1 construct: made in house; host or cells: HEK293T
Experimental: FIG. 6: SEQ ID NO. 6 reduces PCSK9 binding to LDLR in vitro. Left; Coomassie staining of His6 tag purified recombinant SEQ ID NO. 6 and PCSK9 produced as described in Material and Methods. Right; PCSK9-V5-His6 (1 μg) was incubated without (−) or with (+) recombinant SEQ ID NO. 6 (2 μg) in 500 μl of immune-precipitation (IP) buffer (PBS, 1 mM CaCl2, 1% Tween-20 and protease inhibitors) for 4 h at 4° C. on a rotator. Following incubation, 1 μg of recombinant human LDLR ectodomain was added together with 50 μl of A/G-agarose beads and 1 μg of mAb-V5 antibody and incubated with rotation overnight. Samples were then centrifuged at 3,000×g for 5 min and pellets washed three times with 1 ml IP buffer and rotated for 10 min 4° C. and resuspended in 2× Laemmli loading buffer. Samples were separated by SDS-PAGE and immune-blotted as indicated. Data are representative of two independent experiments.
NO. […] NO. 3 might be due to direct competition for PCSK9 binding to the LDLR. To test this hypothesis, we subcloned the SEQ ID. NO. 6 into the pET-24 bacterial expressing vector of which recombinant protein were retrieved from E. coli and purified by metal affinity and size exclusion chromatography. The homogeneity of purified SEQ ID. NO. 6(^˜20 kDa) and recombinant PCSK9 purified from conditioned media of HEK293 transfected cells were assessed by SDS-PAGE and coomassie staining (FIG. 6; left panels). […]

T1 sequence (Q8NBP7 153-692): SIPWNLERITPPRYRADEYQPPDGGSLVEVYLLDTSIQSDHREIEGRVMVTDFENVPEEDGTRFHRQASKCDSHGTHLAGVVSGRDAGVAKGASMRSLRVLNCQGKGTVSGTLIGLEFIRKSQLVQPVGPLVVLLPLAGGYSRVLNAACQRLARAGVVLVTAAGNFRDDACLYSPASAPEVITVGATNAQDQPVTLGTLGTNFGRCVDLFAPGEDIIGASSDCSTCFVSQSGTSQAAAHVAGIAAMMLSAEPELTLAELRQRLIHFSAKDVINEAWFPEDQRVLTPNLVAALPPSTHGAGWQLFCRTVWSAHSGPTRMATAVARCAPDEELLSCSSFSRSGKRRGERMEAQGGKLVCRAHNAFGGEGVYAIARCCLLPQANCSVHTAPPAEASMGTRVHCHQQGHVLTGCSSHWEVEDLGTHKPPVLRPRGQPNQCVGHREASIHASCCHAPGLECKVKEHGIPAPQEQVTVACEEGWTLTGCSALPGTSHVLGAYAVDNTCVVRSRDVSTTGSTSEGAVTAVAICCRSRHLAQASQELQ
T1 sequence (Q8NBP7 31-152 partner limits assumed): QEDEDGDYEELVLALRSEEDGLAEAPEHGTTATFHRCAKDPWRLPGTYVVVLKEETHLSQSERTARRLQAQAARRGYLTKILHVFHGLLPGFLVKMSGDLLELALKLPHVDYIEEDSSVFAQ

| LDLR pull-down with PCSK9 (PCSK9 binding to LDLR) | Molecule | Effect on PCSK9-induced LDLR degradation ([1]; HepG2, overnight, 25 nM PCSK9, 0, 10, 25 or 100 nM protein) | PCSK9-mCherry internalization in LDLR-EGFP expressing cells [2] | Block of exogenously added PCSK9 ([1]; 250 nM, HepG2, exogenous PCSK9 ~6-fold endogenous levels) | Concentration at which maximum effect on total LDLR protein levels was saturated ([1]; HepG2, overnight) [nM] | Total LDLR protein levels ([1]; HepG2, overnight, extracellular addition, endogenously secreted PCSK9) |
| --- | --- | --- | --- | --- | --- | --- |
| – | SEQ ID. NO. 67: full-length recombinant GRP94 obtained from Enzo Life Sciences (Cat. #ADI-SPP-766) | reverted in a dose-dependent manner | significantly reduced | – | – | – |
| partially inhibited | B1 | – | – | not sufficient | ≤ 25 | significantly increases |
